Experimental data reported in patent US20220119536A1 (Boehringer Ingelheim, published 2022).
Several values for one entry are separate records, joined by “and”; a condition that tells them apart may be missing. Equal values may be shown once. Read-outs that look alike come from different tables or passages of the source.

Experiments:
Assay in all cases: cell-based or functional assay
[1] = biological target: T1, human VEGF-A (human, UniProt P15692-4 27-191)
[2] = biological target: T1, human VEGF-A; remark: listed apart in the source
[3] = biological target: T1, human VEGF-A; remark: listed apart in the source
[4] = biological target: T1, human VEGF-A; remark: listed apart in the source
[5] = biological target: T1, human VEGF-A; remark: listed apart in the source
[6] = biological target: T1, human VEGF-A; remark: listed apart in the source
[7] = biological target: T2, human TrkB receptor (human, UniProt Q16620 32-822)
[8] = biological target: T2, human TrkB receptor; remark: listed apart in the source

T2 sequence (Q16620 32-822): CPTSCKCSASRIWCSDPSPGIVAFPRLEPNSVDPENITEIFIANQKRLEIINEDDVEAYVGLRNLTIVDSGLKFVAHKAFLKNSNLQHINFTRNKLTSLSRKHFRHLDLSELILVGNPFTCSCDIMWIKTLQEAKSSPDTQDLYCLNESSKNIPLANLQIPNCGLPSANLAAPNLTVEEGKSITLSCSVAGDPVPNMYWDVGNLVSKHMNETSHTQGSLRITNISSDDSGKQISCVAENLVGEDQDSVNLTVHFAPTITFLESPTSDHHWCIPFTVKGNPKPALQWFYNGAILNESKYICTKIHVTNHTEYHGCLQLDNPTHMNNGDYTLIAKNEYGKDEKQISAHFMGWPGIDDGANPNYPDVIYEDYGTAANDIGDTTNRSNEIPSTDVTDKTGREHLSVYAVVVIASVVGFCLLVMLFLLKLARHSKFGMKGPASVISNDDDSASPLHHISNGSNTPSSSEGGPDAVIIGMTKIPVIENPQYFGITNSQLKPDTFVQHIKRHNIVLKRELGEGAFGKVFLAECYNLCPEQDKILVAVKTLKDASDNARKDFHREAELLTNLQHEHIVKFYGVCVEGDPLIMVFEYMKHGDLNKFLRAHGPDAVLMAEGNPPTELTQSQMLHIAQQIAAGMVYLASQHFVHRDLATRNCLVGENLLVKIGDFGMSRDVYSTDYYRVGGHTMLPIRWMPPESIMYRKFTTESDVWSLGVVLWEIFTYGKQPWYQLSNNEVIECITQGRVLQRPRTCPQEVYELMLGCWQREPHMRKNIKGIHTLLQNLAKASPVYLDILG
T1 sequence (P15692 other isoform, or with tags, fused parts or gaps limits assumed): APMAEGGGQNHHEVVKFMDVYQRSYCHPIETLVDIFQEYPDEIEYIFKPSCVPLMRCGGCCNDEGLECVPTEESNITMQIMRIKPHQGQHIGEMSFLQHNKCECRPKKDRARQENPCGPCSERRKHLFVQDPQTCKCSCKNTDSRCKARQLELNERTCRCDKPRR

B1: TPP-14938 (bispecific antibody, human IgG1, kappa, L234A L235A)
light: DIQMTQSPSSLSASVGDRVTITCRASQVIRRSLAWYQQKPGKAPKLLIYAASNLASGVPSRFSGSGSGTDFTLTISSLQPEDFATYYCQQSNTSPLTFGQGTKVEIKRTVAAPSVFIFPPSDEQLKSGTASVVCLLNNFYPREAKVQWKVDNALQSGNSQESVTEQDSKDSTYSLSSTLTLSKADYEKHKVYACEVTHQGLSSPVTKSFNRGEC
heavy: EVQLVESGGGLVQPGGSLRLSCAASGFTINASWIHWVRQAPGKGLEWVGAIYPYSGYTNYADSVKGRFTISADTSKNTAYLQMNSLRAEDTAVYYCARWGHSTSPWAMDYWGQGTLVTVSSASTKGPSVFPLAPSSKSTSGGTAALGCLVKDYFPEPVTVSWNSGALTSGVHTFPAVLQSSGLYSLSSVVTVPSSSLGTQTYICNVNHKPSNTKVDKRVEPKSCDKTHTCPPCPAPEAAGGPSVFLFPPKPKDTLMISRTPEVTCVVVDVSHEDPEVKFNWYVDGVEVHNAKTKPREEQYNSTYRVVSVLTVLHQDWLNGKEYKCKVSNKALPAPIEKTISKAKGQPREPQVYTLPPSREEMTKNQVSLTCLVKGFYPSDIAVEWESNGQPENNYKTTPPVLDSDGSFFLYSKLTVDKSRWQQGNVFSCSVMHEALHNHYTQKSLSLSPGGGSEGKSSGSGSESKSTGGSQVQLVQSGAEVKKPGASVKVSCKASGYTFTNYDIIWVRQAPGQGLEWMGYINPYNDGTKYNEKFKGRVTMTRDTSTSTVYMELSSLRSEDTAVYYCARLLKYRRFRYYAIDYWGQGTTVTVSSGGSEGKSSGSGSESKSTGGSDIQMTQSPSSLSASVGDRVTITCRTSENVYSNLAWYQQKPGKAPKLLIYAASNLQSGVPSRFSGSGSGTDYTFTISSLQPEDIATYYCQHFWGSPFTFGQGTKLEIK
concentration for full inhibition of VEGF-induced HRMEC proliferation [1]: > 16 nM
Bottom plateau (ERK1/2 phosphorylation, counts) [2]: 1330 counts
Bottom plateau (Src phosphorylation, counts) [2]: 5480 counts
IC50 (ERK1/2 phosphorylation) [2]: 2.71 nM
IC50 (Src phosphorylation) [2]: 1.8 nM
Bottom plateau (ERK1/2 phosphorylation, counts) [3]: 1330 counts
Bottom plateau (Src phosphorylation, counts) [3]: 5480 counts
IC50 (ERK1/2 phosphorylation) [3]: 2.71 nM
IC50 (Src phosphorylation) [3]: 1.8 nM

B2: TPP-14939 (bispecific antibody, human IgG1, kappa, L234A L235A)
light: DIQMTQSPSSLSASVGDRVTITCRASQVIRRSLAWYQQKPGKAPKLLIYAASNLASGVPSRFSGSGSGTDFTLTISSLQPEDFATYYCQQSNTSPLTFGQGTKVEIKRTVAAPSVFIFPPSDEQLKSGTASVVCLLNNFYPREAKVQWKVDNALQSGNSQESVTEQDSKDSTYSLSSTLTLSKADYEKHKVYACEVTHQGLSSPVTKSFNRGEC
heavy: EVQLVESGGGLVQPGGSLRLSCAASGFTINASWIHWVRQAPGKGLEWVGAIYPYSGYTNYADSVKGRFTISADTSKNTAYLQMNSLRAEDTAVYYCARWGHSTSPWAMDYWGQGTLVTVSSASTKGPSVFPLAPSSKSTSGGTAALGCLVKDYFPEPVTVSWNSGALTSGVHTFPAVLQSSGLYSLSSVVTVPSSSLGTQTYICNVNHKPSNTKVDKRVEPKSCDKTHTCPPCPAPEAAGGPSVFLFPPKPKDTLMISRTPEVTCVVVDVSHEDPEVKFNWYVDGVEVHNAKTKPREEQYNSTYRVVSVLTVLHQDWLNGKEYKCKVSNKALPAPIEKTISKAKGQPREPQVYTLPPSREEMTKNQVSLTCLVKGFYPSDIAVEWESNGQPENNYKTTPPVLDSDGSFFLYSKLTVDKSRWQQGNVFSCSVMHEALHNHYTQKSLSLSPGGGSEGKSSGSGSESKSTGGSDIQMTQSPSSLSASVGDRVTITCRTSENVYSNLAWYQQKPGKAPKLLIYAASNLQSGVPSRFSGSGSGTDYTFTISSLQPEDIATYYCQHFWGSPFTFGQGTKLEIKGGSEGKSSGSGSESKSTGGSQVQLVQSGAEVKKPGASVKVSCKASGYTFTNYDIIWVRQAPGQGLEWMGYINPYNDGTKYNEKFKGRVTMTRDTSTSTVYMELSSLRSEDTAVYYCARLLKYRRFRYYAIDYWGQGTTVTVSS
concentration for full inhibition of VEGF-induced HRMEC proliferation [1]: > 16 nM
Bottom plateau (ERK1/2 phosphorylation, counts) [2]: 1140 counts
Bottom plateau (Src phosphorylation, counts) [2]: 5540 counts
IC50 (ERK1/2 phosphorylation) [2]: 2.51 nM
IC50 (Src phosphorylation) [2]: 1.16 nM
Bottom plateau (ERK1/2 phosphorylation, counts) [3]: 1140 counts
Bottom plateau (Src phosphorylation, counts) [3]: 5540 counts
IC50 (ERK1/2 phosphorylation) [3]: 2.51 nM
IC50 (Src phosphorylation) [3]: 1.16 nM

B3: TPP-11736 (bispecific antibody, human IgG1, kappa, L234A L235A)
light: DIQMTQSPSSLSASVGDRVTITCRTSENVYSNLAWYQQKPGKAPKLLIYAASNLQSGVPSRFSGSGSGTDYTFTISSLQPEDIATYYCQHFWGSPFTFGQGTKLEIKRTVAAPSVFIFPPSDEQLKSGTASVVCLLNNFYPREAKVQWKVDNALQSGNSQESVTEQDSKDSTYSLSSTLTLSKADYEKHKVYACEVTHQGLSSPVTKSFNRGEC
heavy: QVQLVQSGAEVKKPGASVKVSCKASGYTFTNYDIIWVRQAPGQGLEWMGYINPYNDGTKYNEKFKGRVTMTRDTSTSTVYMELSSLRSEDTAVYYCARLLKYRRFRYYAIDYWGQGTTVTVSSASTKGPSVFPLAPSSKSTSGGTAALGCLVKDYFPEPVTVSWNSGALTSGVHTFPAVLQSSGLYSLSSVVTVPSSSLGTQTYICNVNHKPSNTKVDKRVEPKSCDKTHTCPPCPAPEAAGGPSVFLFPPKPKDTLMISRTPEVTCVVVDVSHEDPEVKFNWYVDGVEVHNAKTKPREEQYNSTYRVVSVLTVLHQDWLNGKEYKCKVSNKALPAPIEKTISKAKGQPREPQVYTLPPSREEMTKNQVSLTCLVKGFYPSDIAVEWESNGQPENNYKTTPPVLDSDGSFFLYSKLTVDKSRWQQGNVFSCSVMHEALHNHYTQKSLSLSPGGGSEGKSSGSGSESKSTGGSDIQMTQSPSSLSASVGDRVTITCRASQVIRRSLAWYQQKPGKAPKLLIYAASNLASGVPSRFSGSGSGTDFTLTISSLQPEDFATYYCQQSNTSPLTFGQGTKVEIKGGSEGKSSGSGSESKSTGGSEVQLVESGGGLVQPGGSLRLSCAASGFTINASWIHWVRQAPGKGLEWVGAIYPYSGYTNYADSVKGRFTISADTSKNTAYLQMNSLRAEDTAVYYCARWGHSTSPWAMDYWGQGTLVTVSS
Bottom plateau (ERK1/2 phosphorylation, counts) [4]: 3690 counts
Bottom plateau (Src phosphorylation, counts) [4]: 6300 counts
IC50 (ERK1/2 phosphorylation) [4]: 5.59 nM
IC50 (Src phosphorylation) [4]: 3.97 nM
Bottom plateau (ERK1/2 phosphorylation, counts) [5]: 3690 counts
Bottom plateau (Src phosphorylation, counts) [5]: 6300 counts
IC50 (ERK1/2 phosphorylation) [5]: 5.6 nM
IC50 (Src phosphorylation) [5]: 4 nM
IC50, inhibition of VEGF-induced ERK1/2 phosphorylation [1]: ~4 nM and ~10 nM
IC50, inhibition of VEGF-induced p38 MAPK phosphorylation [1]: ~7.4 nM
Bottom plateau (ERK1/2 phosphorylation, counts) [2]: 3690 counts
Bottom plateau (Src phosphorylation, counts) [2]: 6300 counts
IC50 (ERK1/2 phosphorylation) [2]: 5.59 nM
IC50 (Src phosphorylation) [2]: 3.97 nM
Bottom plateau (ERK1/2 phosphorylation, counts) [3]: 3690 counts
Bottom plateau (Src phosphorylation, counts) [3]: 6300 counts
IC50 (ERK1/2 phosphorylation) [3]: 5.59 nM
IC50 (Src phosphorylation) [3]: 3.97 nM
IC50 (ERK1/2 phosphorylation) [6]: 9.1 nM
IC50 (p38 MAPK phosphorylation) [6]: 7.7 nM

B4: TPP-14937 (bispecific antibody, human IgG1, kappa, L234A L235A)
light: DIQMTQSPSSLSASVGDRVTITCRTSENVYSNLAWYQQKPGKAPKLLIYAASNLQSGVPSRFSGSGSGTDYTFTISSLQPEDIATYYCQHFWGSPFTFGQGTKLEIKRTVAAPSVFIFPPSDEQLKSGTASVVCLLNNFYPREAKVQWKVDNALQSGNSQESVTEQDSKDSTYSLSSTLTLSKADYEKHKVYACEVTHQGLSSPVTKSFNRGEC
heavy: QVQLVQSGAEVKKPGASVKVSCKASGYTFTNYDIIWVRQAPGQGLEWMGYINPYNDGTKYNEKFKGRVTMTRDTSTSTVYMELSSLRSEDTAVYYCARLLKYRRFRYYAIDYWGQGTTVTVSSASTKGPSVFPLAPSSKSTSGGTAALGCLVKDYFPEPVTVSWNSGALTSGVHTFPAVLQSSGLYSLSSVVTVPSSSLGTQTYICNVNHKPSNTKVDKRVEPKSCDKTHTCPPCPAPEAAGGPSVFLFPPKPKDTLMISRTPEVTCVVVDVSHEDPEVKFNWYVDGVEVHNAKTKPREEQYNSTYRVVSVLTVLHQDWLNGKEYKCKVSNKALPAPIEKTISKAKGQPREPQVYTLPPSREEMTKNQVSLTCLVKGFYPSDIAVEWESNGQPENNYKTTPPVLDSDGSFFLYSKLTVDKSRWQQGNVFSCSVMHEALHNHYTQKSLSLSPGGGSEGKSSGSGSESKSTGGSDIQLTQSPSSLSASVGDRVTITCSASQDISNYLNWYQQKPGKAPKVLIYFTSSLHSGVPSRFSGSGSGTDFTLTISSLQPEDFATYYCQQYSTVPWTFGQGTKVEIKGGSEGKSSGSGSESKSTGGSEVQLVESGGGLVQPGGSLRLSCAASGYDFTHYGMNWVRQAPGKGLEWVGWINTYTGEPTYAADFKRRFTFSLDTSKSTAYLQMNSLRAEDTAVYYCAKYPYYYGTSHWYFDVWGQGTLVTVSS
Bottom plateau (ERK1/2 phosphorylation, counts) [4]: -926 counts
Bottom plateau (Src phosphorylation, counts) [4]: 4570 counts
IC50 (ERK1/2 phosphorylation) [4]: 5.58 nM
IC50 (Src phosphorylation) [4]: 5.83 nM
Bottom plateau (ERK1/2 phosphorylation, counts) [5]: -927 counts
Bottom plateau (Src phosphorylation, counts) [5]: 4570 counts
IC50 (ERK1/2 phosphorylation) [5]: 5.6 nM
IC50 (Src phosphorylation) [5]: 5.8 nM
concentration for full inhibition of VEGF-induced HRMEC proliferation [1]: 4 nM

B5: TPP-14936 (bispecific antibody, human IgG1, kappa, L234A L235A)
light: DIQMTQSPSSLSASVGDRVTITCRTSENVYSNLAWYQQKPGKAPKLLIYAASNLQSGVPSRFSGSGSGTDYTFTISSLQPEDIATYYCQHFWGSPFTFGQGTKLEIKRTVAAPSVFIFPPSDEQLKSGTASVVCLLNNFYPREAKVQWKVDNALQSGNSQESVTEQDSKDSTYSLSSTLTLSKADYEKHKVYACEVTHQGLSSPVTKSFNRGEC
heavy: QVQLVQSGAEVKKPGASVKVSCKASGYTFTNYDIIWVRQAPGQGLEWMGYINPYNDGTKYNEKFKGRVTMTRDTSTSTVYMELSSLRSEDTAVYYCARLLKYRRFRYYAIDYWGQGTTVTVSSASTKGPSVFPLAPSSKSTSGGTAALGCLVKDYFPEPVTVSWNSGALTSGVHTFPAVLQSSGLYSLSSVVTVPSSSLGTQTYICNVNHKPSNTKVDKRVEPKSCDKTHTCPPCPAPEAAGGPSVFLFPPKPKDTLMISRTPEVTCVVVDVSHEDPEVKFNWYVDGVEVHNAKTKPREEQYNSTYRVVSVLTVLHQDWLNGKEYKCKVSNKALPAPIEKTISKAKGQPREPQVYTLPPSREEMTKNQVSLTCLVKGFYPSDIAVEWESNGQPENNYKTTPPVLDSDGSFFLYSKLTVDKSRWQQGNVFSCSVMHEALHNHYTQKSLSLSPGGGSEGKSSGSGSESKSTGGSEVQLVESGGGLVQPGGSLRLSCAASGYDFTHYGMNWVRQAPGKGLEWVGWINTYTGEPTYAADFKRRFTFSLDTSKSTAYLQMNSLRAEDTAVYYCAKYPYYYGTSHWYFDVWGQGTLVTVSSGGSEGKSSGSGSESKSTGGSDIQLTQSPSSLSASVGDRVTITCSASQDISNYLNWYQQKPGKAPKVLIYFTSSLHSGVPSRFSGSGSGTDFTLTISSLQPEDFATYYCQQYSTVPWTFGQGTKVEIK
Bottom plateau (ERK1/2 phosphorylation, counts) [4]: -340 counts
Bottom plateau (Src phosphorylation, counts) [4]: 4650 counts
IC50 (ERK1/2 phosphorylation) [4]: 3.49 nM
IC50 (Src phosphorylation) [4]: 3.4 nM
Bottom plateau (ERK1/2 phosphorylation, counts) [5]: -341 counts
Bottom plateau (Src phosphorylation, counts) [5]: 4650 counts
IC50 (ERK1/2 phosphorylation) [5]: 3.5 nM
IC50 (Src phosphorylation) [5]: 3.4 nM
concentration for full inhibition of VEGF-induced HRMEC proliferation [1]: 1 nM

B6: TPP-11738 (bispecific antibody, human IgG1, kappa, L234A L235A)
light: DIQMTQSPSSLSASVGDRVTITCRTSENVYSNLAWYQQKPGKAPKLLIYAASNLQSGVPSRFSGSGSGTDYTFTISSLQPEDIATYYCQHFWGSPFTFGQGTKLEIKRTVAAPSVFIFPPSDEQLKSGTASVVCLLNNFYPREAKVQWKVDNALQSGNSQESVTEQDSKDSTYSLSSTLTLSKADYEKHKVYACEVTHQGLSSPVTKSFNRGEC
heavy: not shown
IC50, inhibition of VEGF-induced ERK1/2 phosphorylation [1]: ~4 nM and ~10 nM

B7: TPP-13788 (B20 IgG) (antibody, V domains shown)
VH: EVQLVESGGGLVQPGGSLRLSCAASGFTINASWIHWVRQAPGKGLEWVGAIYPYSGYTNYADSVKGRFTISADTSKNTAYLQMNSLRAEDTAVYYCARWGHSTSPWAMDYWGQGTLVTVSS
VL: DIQMTQSPSSLSASVGDRVTITCRASQVIRRSLAWYQQKPGKAPKLLIYAASNLASGVPSRFSGSGSGTDFTLTISSLQPEDFATYYCQQSNTSPLTFGQGTKVEIK
fold increase of VEGF-A scavenging potency vs. TPP-11736 [1]: ~3 fold
IC50 (ERK1/2 phosphorylation) [6]: 3 nM
IC50 (p38 MAPK phosphorylation) [6]: 2.4 nM

B8: human BDNF (ligand, UniProt P23560 129-247, looked up)
chain: HSDPARRGELSVCDSISEWVTAADKKTAVDMSGGTVTVLEKVPVSKGQLKQYFYETKCNPMGYTKEGCRGIDKRHWNSQCRTTQSYVRALTMDSKKRIGWRFIRIDTSCVCTLTIKRGR
EC50 (pERK) [7]: 0.507 nM
EC50 (pTrkB) [7]: 1.22 nM
EC50 (pERK) [8]: 0.282 nM
EC50 (pTrkB) [8]: 1.28 nM
